{"source": "patent US7067277B1", "about": "“Chimeric G proteins and uses thereof” (H. Lundbeck A/S, priority 1999, dated 2006)", "molecules": {"B1": {"name": "cGαq/z5: chimeric Gα subunit: C-terminal final 5 amino acids of C. elegans Gαq replaced with those of hGαz (SEQ ID NO: 1) (protein)", "chain": "MACCLSEEAREQKRINQEIEKQLQRDKRNARRELKLLLLGTGESGKSTFIKQMRIIHGQGYSEEDKRAHIRLVYQNVFMAIQSMIRAMDTLDIKFGNESEELQEKAAVVREVDFESVTSFEEPYVSYIKELWEDSGIQECYDRRREYQLTDSAKYYLSDLRRLAVPDYLPTEQDILRVRVPTTGIIEYPFDLEQIIFRMVDVGGQRSERRKWIHCFENVTSIMFLVALSEYDQVLVECDNENRMEESKALFRTIITYPWFTNSSVILFLNKKDLLEEKILYSHLADYFPEYDGPPRDPIAAREFILKMFVDLNPDADKIIYSHFTCATDTENIRFVFAAVKDTILQHNLKYIGLC", "modifications": "C. elegans"}, "B2": {"name": "cGαq/z9: C. elegans Gαq with Gαz portion of the C-terminal tail extended to 9 amino acids (SEQ ID NO: 2) (protein)", "chain": "MACCLSEEAREQKRINQEIEKQLQRDKRNARRELKLLLLGTGESGKSTFIKQMRIIHGQGYSEEDKRAHIRLVYQNVFMAIQSMIRAMDTLDIKFGNESEELQEKAAVVREVDFESVTSFEEPYVSYIKELWEDSGIQECYDRRREYQLTDSAKYYLSDLRRLAVPDYLPTEQDILRVRVPTTGIIEYPFDLEQIIFRMVDVGGQRSERRKWIHCFENVTSIMFLVALSEYDQVLVECDNENRMEESKALFRTIITYPWFTNSSVILFLNKKDLLEEKILYSHLADYFPEYDGPPRDPIAAREFILKMFVDLNPDADKIIYSHFTCATDTENIRFVFAAVKDTILQNNLKYIGLC", "modifications": "C. elegans"}}, "assay_in_all_cases": "Calcium mobilization (FLIPR, Fluo-3) in transfected COS-7 cells", "type_in_all_cases": "cell-based", "key": {"h 5HT1F": {"molecular_target": "T1, h 5HT1F (Homo sapiens, UniProt P30939)", "T1 sequence (P30939 1-366)": "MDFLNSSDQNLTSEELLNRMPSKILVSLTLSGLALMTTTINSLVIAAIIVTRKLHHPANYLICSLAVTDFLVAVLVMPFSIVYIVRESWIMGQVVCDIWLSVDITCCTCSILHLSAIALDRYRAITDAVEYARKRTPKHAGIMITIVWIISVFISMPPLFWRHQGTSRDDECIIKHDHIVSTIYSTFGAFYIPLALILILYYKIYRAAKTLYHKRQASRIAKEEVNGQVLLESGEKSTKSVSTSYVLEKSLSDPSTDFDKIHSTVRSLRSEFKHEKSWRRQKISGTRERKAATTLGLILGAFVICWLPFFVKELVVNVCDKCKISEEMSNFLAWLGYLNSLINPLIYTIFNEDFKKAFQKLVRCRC", "conditions": "h 5HT1F + chimera in COS-7; agonist 5HT, max 100 μM", "procedure,_shortened": "(§1)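 Calcium responses to agonist were measured in COS-7 cells co-expressing each receptor with Gαq/z and/or Gαq/s chimeras, using Fluo-3 dye and FLIPR detection over 3 min at room temperature.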"}, "h 5HT4": {"molecular_target": "h 5HT4 (Homo sapiens, UniProt Q13639)", "sequence (Q13639 whole entry)": "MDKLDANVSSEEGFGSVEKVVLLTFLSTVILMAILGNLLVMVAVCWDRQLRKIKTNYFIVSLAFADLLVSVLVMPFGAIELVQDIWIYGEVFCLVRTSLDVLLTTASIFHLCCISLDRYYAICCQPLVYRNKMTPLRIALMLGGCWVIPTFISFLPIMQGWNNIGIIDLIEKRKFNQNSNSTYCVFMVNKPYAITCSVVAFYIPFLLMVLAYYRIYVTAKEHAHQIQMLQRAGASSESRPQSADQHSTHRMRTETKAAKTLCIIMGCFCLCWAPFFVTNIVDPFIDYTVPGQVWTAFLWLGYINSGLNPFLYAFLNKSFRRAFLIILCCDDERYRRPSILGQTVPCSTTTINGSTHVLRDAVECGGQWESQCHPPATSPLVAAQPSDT", "conditions": "h 5HT4 + chimera in COS-7; agonist 5HT, max 100 μM", "procedure,_shortened": "as §1"}, "h GLP-1": {"molecular_target": "h GLP-1 (Homo sapiens, UniProt P43220)", "sequence (P43220 24-463)": "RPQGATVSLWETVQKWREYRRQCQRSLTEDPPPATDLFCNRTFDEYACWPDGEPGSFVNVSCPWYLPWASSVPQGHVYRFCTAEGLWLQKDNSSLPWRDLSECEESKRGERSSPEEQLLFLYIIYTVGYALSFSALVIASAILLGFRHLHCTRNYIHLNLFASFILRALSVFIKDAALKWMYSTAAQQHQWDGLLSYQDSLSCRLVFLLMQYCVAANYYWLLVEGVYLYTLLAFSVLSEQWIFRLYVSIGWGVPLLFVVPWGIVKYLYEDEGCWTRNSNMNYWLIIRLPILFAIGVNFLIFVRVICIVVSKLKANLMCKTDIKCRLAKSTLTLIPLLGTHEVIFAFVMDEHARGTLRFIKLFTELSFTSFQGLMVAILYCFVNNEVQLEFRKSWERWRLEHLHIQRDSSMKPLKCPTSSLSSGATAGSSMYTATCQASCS", "conditions": "h GLP-1 + chimera in COS-7; agonist GLP-1, max 10 μM", "procedure,_shortened": "as §1"}, "h Y4": {"molecular_target": "T2, h Y4 (Homo sapiens, UniProt P50391)", "T2 construct": "expressed in transfected cells; host or cells: COS-7", "T2 sequence (P50391 whole entry)": "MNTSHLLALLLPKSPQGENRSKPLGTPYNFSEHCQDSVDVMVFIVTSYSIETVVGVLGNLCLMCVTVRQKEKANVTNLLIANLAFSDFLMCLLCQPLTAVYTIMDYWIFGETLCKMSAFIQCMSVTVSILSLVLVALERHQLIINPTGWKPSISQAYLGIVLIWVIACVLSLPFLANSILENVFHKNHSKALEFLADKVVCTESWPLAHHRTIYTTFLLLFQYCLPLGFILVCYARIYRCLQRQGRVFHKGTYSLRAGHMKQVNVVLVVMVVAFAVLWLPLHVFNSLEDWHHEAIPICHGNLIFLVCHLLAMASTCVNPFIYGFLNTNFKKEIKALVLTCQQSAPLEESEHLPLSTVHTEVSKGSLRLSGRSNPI", "conditions": "h Y4 + chimera in COS-7; agonist PP, max 10 μM", "procedure,_shortened": "as §1"}, "m 5HT5A": {"molecular_target": "m 5HT5A (Mus musculus, UniProt P30966)", "sequence (P30966 whole entry)": "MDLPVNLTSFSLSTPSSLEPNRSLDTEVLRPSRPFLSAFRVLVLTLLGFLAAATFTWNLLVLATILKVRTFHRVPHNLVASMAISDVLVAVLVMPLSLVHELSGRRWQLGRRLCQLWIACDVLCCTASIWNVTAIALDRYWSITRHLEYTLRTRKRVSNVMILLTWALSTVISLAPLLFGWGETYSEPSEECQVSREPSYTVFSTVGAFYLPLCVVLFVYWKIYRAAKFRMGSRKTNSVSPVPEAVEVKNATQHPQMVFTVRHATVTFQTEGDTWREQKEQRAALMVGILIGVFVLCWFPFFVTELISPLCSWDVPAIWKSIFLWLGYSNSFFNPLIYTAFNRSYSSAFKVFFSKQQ", "conditions": "m 5HT5A + chimera in COS-7; agonist 5HT, max 100 μM", "procedure,_shortened": "as §1"}, "r GALR2": {"molecular_target": "T3, r GALR2 (Rattus norvegicus, UniProt O08726)", "T3 construct": "expressed in transfected cells; host or cells: COS-7", "T3 sequence (O08726 1-372)": "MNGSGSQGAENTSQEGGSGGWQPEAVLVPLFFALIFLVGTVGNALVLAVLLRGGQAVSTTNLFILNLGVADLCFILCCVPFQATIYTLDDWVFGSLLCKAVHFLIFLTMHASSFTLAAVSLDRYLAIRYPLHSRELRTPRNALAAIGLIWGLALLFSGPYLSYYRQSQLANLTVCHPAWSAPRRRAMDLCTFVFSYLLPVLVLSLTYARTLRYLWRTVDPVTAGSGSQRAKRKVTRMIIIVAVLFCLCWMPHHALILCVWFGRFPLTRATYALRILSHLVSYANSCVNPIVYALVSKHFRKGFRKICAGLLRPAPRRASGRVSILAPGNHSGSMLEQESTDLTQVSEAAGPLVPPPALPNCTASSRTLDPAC", "conditions": "r GALR2 + chimera in COS-7; agonist GAL, max 10 μM", "procedure,_shortened": "as §1"}, "r NTR1": {"molecular_target": "T4, r NTR1 (Rattus norvegicus, UniProt P20789)", "T4 construct": "expressed in transfected cells; host or cells: COS-7", "T4 sequence (P20789 whole entry)": "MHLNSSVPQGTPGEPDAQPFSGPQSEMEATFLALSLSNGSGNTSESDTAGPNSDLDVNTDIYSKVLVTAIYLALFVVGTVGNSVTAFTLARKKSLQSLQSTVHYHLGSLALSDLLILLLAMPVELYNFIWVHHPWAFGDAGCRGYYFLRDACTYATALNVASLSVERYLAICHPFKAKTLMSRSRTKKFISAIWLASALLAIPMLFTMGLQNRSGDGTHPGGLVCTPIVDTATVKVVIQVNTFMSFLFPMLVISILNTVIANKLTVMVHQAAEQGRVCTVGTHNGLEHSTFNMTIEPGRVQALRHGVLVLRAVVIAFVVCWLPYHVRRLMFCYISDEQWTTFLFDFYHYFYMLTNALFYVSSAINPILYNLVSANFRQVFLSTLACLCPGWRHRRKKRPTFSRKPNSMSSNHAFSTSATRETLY", "conditions": "r NTR1 + chimera in COS-7; agonist NT, max 1 μM", "procedure,_shortened": "as §1"}, "h D1": {"molecular_target": "T5, h D1 (Homo sapiens, UniProt P21728)", "T5 construct": "expressed in transfected cells; host or cells: COS-7", "T5 sequence (P21728 whole entry)": "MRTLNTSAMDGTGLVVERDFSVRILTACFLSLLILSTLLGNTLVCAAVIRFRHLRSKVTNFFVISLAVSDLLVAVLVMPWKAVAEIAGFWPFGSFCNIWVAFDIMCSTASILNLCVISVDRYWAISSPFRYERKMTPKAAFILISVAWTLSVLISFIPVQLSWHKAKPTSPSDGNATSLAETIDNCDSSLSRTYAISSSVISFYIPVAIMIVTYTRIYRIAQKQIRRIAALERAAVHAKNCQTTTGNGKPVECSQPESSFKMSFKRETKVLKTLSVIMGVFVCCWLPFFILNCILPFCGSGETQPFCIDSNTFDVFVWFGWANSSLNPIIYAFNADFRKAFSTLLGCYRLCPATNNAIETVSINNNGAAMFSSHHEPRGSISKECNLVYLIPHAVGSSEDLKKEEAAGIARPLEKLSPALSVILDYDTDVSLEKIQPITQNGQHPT", "protocol": "COS-7 cells were cultured in 225 cm^2 flasks in Dulbecco's Modified Eagle Medium (DMEM) with supplements (10% bovine calf serum, 4 mM glutamine, 100 units/ml penicillin and 100 μg/ml streptomycin) at 37° C., 5% CO2. Stock plates of COS-7 cells were trypsinized and split 1:6 every 3–4 days.\nFor evaluating the function of a single chimeric G protein, the standard cDNA transfection ratio was 1:1 (10 μg GPCR cDNA and 10 μg chimeric G protein cDNA). For evaluating the function of a mixture of chimeric G proteins, the standard cDNA transfection ratio was 8:1:1 (16 μg GPCR cDNA, 2 μg Gαq/z cDNA, 2 μg Gαq/s cDNA).\nTwenty four hours after transient transfection, COS-7 cells were seeded into 96-well black wall microtiter plates coated with poly-D-lysine for assay the following day. […] After excess dye was discarded, cells were washed in assay buffer and layered with a final volume equal to 100 μl/well. Basal fluorescence was monitored in a fluorometric imaging plate reader (FLIPR™, Molecular Devices) with an excitation wavelength of 488 nm and an emission range of 500 to 560 nm. Laser excitation energy was adjusted so that basal fluorescence readings were approximately 10,000 relative fluorescent units. Cells were stimulated with agonists diluted in assay buffer (50 μl), and relative fluorescent units were measured at defined intervals (exposure=0.4 sec) over a 3 min period at room temperature. Maximum change in fluorescence was calculated for each well. Concentration-response curves derived from the maximum change in fluorescence were analyzed by nonlinear regression (Hill equation)."}}}
{"molecule": "B1", "values": [{"measurement": "MAXIMAL SIGNAL (FLUORESCENCE UNITS)", "setting": "h 5HT1F", "result": 243, "unit": "fluorescence units"}, {"measurement": "MAXIMAL SIGNAL (FLUORESCENCE UNITS)", "setting": "h 5HT4", "result": 1011, "unit": "fluorescence units"}, {"measurement": "MAXIMAL SIGNAL (FLUORESCENCE UNITS)", "setting": "h GLP-1", "result": 131, "unit": "fluorescence units"}, {"measurement": "MAXIMAL SIGNAL (FLUORESCENCE UNITS)", "setting": "h Y4", "result": 9422, "unit": "fluorescence units"}, {"measurement": "MAXIMAL SIGNAL (FLUORESCENCE UNITS)", "setting": "m 5HT5A", "result": 351, "unit": "fluorescence units"}, {"measurement": "MAXIMAL SIGNAL (FLUORESCENCE UNITS)", "setting": "r GALR2", "result": 4198, "unit": "fluorescence units"}, {"measurement": "MAXIMAL SIGNAL (FLUORESCENCE UNITS)", "setting": "r NTR1", "result": 14476, "unit": "fluorescence units"}, {"measurement": "maximal signal", "setting": "h D1; human D1 receptor in COS-7, dopamine 0.3 nM to 100 μM concentration-response curve, example shown, FIG. 4B", "result": "14,723 fluorescence units"}, {"measurement": "MAXIMAL SIGNAL (FLUORESCENCE UNITS)", "setting": "h D1; human D1 receptors in COS-7, 10 μg chimera cDNA and 10 μg receptor cDNA, 100 μM dopamine, Table 9 parallel comparison, mean of two experiments", "result": 4832, "unit": "fluorescence units"}]}
{"molecule": "B2", "values": [{"measurement": "MAXIMAL SIGNAL (FLUORESCENCE UNITS)", "setting": "h 5HT1F", "result": 384, "unit": "fluorescence units"}, {"measurement": "MAXIMAL SIGNAL (FLUORESCENCE UNITS)", "setting": "h 5HT4", "result": 1696, "unit": "fluorescence units"}, {"measurement": "MAXIMAL SIGNAL (FLUORESCENCE UNITS)", "setting": "h GLP-1", "result": 135, "unit": "fluorescence units"}, {"measurement": "MAXIMAL SIGNAL (FLUORESCENCE UNITS)", "setting": "h Y4", "result": 7397, "unit": "fluorescence units"}, {"measurement": "MAXIMAL SIGNAL (FLUORESCENCE UNITS)", "setting": "m 5HT5A", "result": 270, "unit": "fluorescence units"}, {"measurement": "MAXIMAL SIGNAL (FLUORESCENCE UNITS)", "setting": "r GALR2", "result": 4470, "unit": "fluorescence units"}, {"measurement": "MAXIMAL SIGNAL (FLUORESCENCE UNITS)", "setting": "r NTR1", "result": 6111, "unit": "fluorescence units"}, {"measurement": "MAXIMAL SIGNAL (FLUORESCENCE UNITS)", "setting": "h D1; h D1 + chimera in COS-7, agonist DA, max 100 μM", "result": 13099, "unit": "fluorescence units"}]}
